Measurements from publication PMC9482650, “Quantitative fragmentomics allow affinity mapping of interactomes” (Nature Communications, 2022).

Assays:
Assay in all cases: holdup assay
Design in all cases: key: below the threshold = too weak to quantify, mostly under pKd 3.1 to 4
[1] = biological target: AHNAK1, Q09666
[2] = biological target: T1, APBA3_1, O96018
T1 sequence (O96018 389-490, limits assumed, looked up): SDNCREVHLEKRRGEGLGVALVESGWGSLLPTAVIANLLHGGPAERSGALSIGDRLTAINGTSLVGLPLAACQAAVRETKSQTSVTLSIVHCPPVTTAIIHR

[3] = biological target: T2, CARD11, Q9BXL7
T2 sequence (Q9BXL7 662-765, limits assumed, looked up): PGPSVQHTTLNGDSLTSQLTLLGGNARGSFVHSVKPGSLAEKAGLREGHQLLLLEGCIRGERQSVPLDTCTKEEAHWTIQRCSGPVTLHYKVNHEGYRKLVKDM

[4] = biological target: DLG1_3, Q12959
[5] = biological target: DLG2_2, Q15700
[6] = biological target: DLG4_3, P78352
[7] = biological target: FRMPD2_2, Q68DX3
[8] = biological target: GORASP1, Q9BQQ3
[9] = biological target: GORASP2, Q9H8Y8
[10] = biological target: GRID2IP_1, A4D2P6
[11] = biological target: GRID2IP_2, A4D2P6
[12] = biological target: T3, GRIP1_7, Q9Y3R0
T3 sequence (Q9Y3R0 999-1096, limits assumed, looked up): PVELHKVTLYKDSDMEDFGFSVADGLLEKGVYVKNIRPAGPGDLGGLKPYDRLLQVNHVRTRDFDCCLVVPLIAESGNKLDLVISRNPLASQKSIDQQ

[13] = biological target: GRIP2_5, Q9C0E4
[14] = biological target: GRIP2_7, Q9C0E4
[15] = biological target: HTRA2, O43464
[16] = biological target: T4, HTRA3, P83110
T4 sequence (P83110 354-453, limits assumed, looked up): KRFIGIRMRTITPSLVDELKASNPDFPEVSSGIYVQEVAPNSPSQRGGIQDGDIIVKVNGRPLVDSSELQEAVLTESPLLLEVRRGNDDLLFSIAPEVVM

[17] = biological target: LDB3, O75112
[18] = biological target: T5, LIN7C, Q9NUP9
T5 sequence (Q9NUP9 88-185, limits assumed, looked up): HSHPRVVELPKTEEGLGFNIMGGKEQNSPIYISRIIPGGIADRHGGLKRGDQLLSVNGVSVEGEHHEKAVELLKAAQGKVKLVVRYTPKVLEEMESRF

[19] = biological target: MAGI2_2, Q86UL8
[20] = biological target: MAGI2_5, Q86UL8
[21] = biological target: MAST1, Q9Y2H9
[22] = biological target: T6, MPDZ_12, O75970
T6 sequence (O75970 1857-1958, limits assumed, looked up): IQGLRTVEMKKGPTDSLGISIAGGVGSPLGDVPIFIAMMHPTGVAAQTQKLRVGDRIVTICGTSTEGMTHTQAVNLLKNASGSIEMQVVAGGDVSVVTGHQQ

[23] = biological target: NHERF2_2, Q15599
[24] = biological target: SCRIB_1, Q14160
[25] = biological target: T7, SNTA1, Q13424
T7 sequence (Q13424 82-180, limits assumed, looked up): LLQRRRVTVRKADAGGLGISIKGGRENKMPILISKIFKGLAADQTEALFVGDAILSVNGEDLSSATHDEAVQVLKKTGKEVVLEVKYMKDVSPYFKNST

[26] = biological target: T8, SNTG2, Q9NY99
T8 sequence (Q9NY99 68-166, limits assumed, looked up): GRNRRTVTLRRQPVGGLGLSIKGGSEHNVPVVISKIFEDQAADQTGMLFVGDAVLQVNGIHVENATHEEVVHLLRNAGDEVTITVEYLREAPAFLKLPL

[27] = biological target: T9, SYNJ2BP, P57105
T9 sequence (P57105 8-110, limits assumed, looked up): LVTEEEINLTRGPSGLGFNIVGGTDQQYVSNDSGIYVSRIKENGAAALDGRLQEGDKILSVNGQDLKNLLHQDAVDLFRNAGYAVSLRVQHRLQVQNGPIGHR

[28] = biological target: T10, TIAM2, Q8IVF5
T10 sequence (Q8IVF5 885-986, limits assumed, looked up): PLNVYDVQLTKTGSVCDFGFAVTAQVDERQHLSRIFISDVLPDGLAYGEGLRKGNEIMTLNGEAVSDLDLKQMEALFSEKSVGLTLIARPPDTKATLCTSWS

[29] = plain residues with an end cap or a label only (N-terminal biotin on a linker: none)
[30] = plain residues with an end cap or a label only (N-terminal biotin on a linker: ahx)
[31] = plain residues with an end cap or a label only (N-terminal biotin on a linker: ttds)

Chain of HTRA2, O43464 (O43464 355-458): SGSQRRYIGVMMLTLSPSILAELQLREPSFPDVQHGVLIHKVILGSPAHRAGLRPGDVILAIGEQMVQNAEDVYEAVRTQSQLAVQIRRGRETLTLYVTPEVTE
Chain of GRID2IP_1, A4D2P6 (A4D2P6 1-87): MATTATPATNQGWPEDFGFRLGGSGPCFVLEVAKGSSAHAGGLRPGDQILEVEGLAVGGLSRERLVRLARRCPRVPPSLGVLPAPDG
Chain of DLG4_3, P78352 (P78352 306-403): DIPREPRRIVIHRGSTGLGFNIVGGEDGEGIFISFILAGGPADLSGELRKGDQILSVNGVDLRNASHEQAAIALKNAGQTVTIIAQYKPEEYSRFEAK
Chain of GRIP2_7, Q9C0E4 (Q9C0E4 934-1023): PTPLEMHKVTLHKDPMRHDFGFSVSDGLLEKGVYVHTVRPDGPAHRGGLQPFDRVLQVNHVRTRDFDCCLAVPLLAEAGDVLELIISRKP
Chain of LDB3, O75112 (O75112 1-94): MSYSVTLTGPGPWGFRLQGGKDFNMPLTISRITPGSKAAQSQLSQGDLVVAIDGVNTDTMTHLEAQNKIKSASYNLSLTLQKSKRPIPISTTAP
Chain of MAGI2_5, Q86UL8 (Q86UL8 915-1017): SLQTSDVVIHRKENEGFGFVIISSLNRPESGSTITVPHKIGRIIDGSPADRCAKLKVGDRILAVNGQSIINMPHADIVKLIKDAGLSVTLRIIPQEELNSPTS
Chain of NHERF2_2, Q15599 (Q15599 142-238): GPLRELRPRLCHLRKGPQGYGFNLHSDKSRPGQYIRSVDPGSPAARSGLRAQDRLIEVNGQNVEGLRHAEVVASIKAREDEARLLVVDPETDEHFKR
Chain of MAGI2_2, Q86UL8 (Q86UL8 410-522): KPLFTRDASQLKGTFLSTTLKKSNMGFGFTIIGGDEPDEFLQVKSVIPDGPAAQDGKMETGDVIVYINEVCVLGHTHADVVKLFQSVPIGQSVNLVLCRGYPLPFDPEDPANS
Chain of DLG2_2, Q15700 (Q15700 189-283): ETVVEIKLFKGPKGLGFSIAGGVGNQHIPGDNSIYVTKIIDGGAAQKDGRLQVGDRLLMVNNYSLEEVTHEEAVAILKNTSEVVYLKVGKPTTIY
Chain of SCRIB_1, Q14160 (Q14160 718-814): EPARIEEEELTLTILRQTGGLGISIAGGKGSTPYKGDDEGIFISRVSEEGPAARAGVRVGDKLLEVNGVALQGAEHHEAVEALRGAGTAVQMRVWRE
Chain of GORASP1, Q9BQQ3 (Q9BQQ3 1-208): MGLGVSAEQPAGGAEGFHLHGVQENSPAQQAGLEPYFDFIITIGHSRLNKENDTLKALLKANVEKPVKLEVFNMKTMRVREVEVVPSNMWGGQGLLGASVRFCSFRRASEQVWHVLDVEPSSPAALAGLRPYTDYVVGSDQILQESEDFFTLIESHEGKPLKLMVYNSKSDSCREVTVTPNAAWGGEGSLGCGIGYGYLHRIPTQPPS
Chain of MAST1, Q9Y2H9 (Q9Y2H9 962-1065): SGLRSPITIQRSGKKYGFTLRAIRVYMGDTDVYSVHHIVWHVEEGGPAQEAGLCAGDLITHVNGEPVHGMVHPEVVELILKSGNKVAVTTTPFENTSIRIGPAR
Chain of FRMPD2_2, Q68DX3 (Q68DX3 944-1038): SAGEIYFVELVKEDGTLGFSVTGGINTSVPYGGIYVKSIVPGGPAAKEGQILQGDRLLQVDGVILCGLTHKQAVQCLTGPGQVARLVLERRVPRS
Chain of DLG1_3, Q12959 (Q12959 457-571): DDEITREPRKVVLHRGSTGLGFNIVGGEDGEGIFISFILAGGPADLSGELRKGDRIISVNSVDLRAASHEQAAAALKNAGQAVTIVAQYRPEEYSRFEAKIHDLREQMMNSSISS
Chain of GRIP2_5, Q9C0E4 (Q9C0E4 544-642): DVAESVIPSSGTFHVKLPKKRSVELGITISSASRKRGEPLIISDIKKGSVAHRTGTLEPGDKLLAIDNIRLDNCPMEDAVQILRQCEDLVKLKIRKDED
Chain of GRID2IP_2, A4D2P6 (A4D2P6 272-370): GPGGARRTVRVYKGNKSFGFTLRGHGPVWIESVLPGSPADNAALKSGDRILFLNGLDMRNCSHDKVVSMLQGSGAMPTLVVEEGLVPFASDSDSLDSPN

NLNSSRVPDLLV [SARS-CoV2-E, P0DTC4]
pKd [1, 29]: below the threshold
pKd [2, 29]: below the threshold
pKd [3, 29]: below the threshold
pKd [4, 29]: below the threshold
pKd [5, 29]: below the threshold
pKd [6, 29]: below the threshold
pKd [7, 29]: below the threshold
pKd [8, 29]: 3.6
pKd [9, 29]: below the threshold
pKd [10, 29]: below the threshold
pKd [11, 29]: below the threshold
pKd [12, 29]: below the threshold
pKd [13, 29]: below the threshold
pKd [14, 29]: below the threshold
pKd [15, 29]: below the threshold
pKd [16, 29]: 3.63
pKd [17, 29]: below the threshold
pKd [18, 29]: below the threshold
pKd [19, 29]: below the threshold
pKd [20, 29]: below the threshold
pKd [21, 29]: below the threshold
pKd [22, 29]: below the threshold
pKd [23, 29]: below the threshold
pKd [24, 29]: below the threshold
pKd [25, 29]: below the threshold
pKd [26, 29]: below the threshold
pKd [27, 29]: below the threshold
pKd [28, 29]: below the threshold

TVICWPGSLV [LNX2, Q8N448]
pKd [1, 30]: below the threshold
pKd [2, 30]: below the threshold
pKd [3, 30]: below the threshold
pKd [4, 30]: 4.32
pKd [5, 30]: 3.9
pKd [6, 30]: 3.58
pKd [7, 30]: 3.85
pKd [8, 30]: 3.58
pKd [9, 30]: 4.55
pKd [10, 30]: below the threshold
pKd [11, 30]: 3.95
pKd [12, 30]: below the threshold
pKd [13, 30]: below the threshold
pKd [14, 30]: below the threshold
pKd [15, 30]: 4.42
pKd [16, 30]: 3.85
pKd [17, 30]: below the threshold
pKd [18, 30]: 4.98
pKd [19, 30]: 4.26
pKd [20, 30]: 4.35
pKd [21, 30]: 3.88
pKd [22, 30]: 3.84
pKd [23, 30]: below the threshold
pKd [24, 30]: below the threshold
pKd [25, 30]: 3.96
pKd [26, 30]: 3.73
pKd [27, 30]: 5.53
pKd [28, 30]: below the threshold

PSASCAVTAA [PDLIM4, P50479;P50479-2]
pKd [1, 30]: below the threshold
pKd [2, 30]: below the threshold
pKd [3, 30]: below the threshold
pKd [4, 30]: below the threshold
pKd [5, 30]: below the threshold
pKd [6, 30]: below the threshold
pKd [7, 30]: below the threshold
pKd [8, 30]: below the threshold
pKd [9, 30]: below the threshold
pKd [10, 30]: below the threshold
pKd [11, 30]: below the threshold
pKd [12, 30]: below the threshold
pKd [13, 30]: below the threshold
pKd [14, 30]: below the threshold
pKd [15, 30]: below the threshold
pKd [16, 30]: below the threshold
pKd [17, 30]: below the threshold
pKd [18, 30]: below the threshold
pKd [19, 30]: below the threshold
pKd [20, 30]: below the threshold
pKd [21, 30]: below the threshold
pKd [22, 30]: below the threshold
pKd [23, 30]: below the threshold
pKd [24, 30]: below the threshold
pKd [25, 30]: below the threshold
pKd [26, 30]: below the threshold
pKd [27, 30]: below the threshold
pKd [28, 30]: below the threshold

PVRVCEETSL [OTULIN, Q96BN8]
pKd [1, 31]: below the threshold
pKd [2, 31]: 3.51
pKd [3, 31]: 3.59
pKd [4, 31]: 4.14
pKd [5, 31]: 3.87
pKd [6, 31]: 3.96
pKd [7, 31]: 3.51
pKd [8, 31]: 3.64
pKd [9, 31]: below the threshold
pKd [10, 31]: below the threshold
pKd [11, 31]: 4.75
pKd [12, 31]: 3.75
pKd [13, 31]: below the threshold
pKd [14, 31]: 3.66
pKd [15, 31]: below the threshold
pKd [16, 31]: below the threshold
pKd [17, 31]: below the threshold
pKd [18, 31]: 4.06
pKd [19, 31]: 4.09
pKd [20, 31]: 4.13
pKd [21, 31]: 5.3
pKd [22, 31]: below the threshold
pKd [23, 31]: 5.21
pKd [24, 31]: 5.44
pKd [25, 31]: 4.53
pKd [26, 31]: 4.63
pKd [27, 31]: 4.74
pKd [28, 31]: below the threshold

SGSRPSATVV [HPV73-E6, Q82005]
pKd [1, 31]: below the threshold
pKd [2, 31]: below the threshold
pKd [3, 31]: below the threshold
pKd [4, 31]: below the threshold
pKd [5, 31]: 4.03
pKd [6, 31]: below the threshold
pKd [7, 31]: below the threshold
pKd [8, 31]: 4.19
pKd [9, 31]: 4.13
pKd [10, 31]: below the threshold
pKd [11, 31]: below the threshold
pKd [12, 31]: 3.83
pKd [13, 31]: below the threshold
pKd [14, 31]: 3.56
pKd [15, 31]: below the threshold
pKd [16, 31]: 3.7
pKd [17, 31]: below the threshold
pKd [18, 31]: 3.81
pKd [19, 31]: 4.19
pKd [20, 31]: 3.7
pKd [21, 31]: 3.73
pKd [22, 31]: below the threshold
pKd [23, 31]: below the threshold
pKd [24, 31]: below the threshold
pKd [25, 31]: 3.54
pKd [26, 31]: below the threshold
pKd [27, 31]: 3.71
pKd [28, 31]: below the threshold
